How the values were obtained:
Assay in all cases: cell-based or functional assay
[1] = molecular target: HIV-1 MGRM-D-012 Env (HIV-1)
[2] = molecular target: HIV-1 CAAN.A2 (Acute) Env on pseudovirus (HIV-1)
[3] = molecular target: HIV-1 APV_17 Env on pseudovirus (HIV-1)
[4] = molecular target: HIV-1 MGRM-G-024 Env (HIV-1)
[5] = molecular target: HIV-1 92TH021 Env (HIV-1)
[6] = molecular target: HIV-1 MGRM-F1-012 Env (HIV-1)
[7] = molecular target: HIV-1 MGRM-AE-005 Env (HIV-1)
[8] = molecular target: HIV-1 MGRM-G-015 Env (HIV-1)
[9] = molecular target: HIV-1 MGRM-AG-011 Env (HIV-1)
[10] = molecular target: HIV-1 MGRM-F1-014 Env (HIV-1)
[11] = molecular target: HIV-1 MGRM-AG-003 Env (HIV-1)
[12] = molecular target: HIV-1 APV_6 Env on pseudovirus (HIV-1)
[13] = molecular target: HIV-1 MGRM-G-001 Env (HIV-1)
[14] = molecular target: HIV-1 98CN009 Env on pseudovirus (HIV-1)
[15] = molecular target: HIV-1 MGRM-C-024 Env on pseudovirus (HIV-1)
[16] = molecular target: HIV-1 MGRM-G-019 Env (HIV-1)
[17] = molecular target: HIV-1 MGRM-G-027 Env (HIV-1)
[18] = molecular target: HIV-1 MGRM-D-024 Env (HIV-1)
[19] = molecular target: HIV-1 MGRM-C-022 Env on pseudovirus (HIV-1)
[20] = molecular target: HIV-1 LAVIC_18 Env on pseudovirus (HIV-1)
HIV-1 JRCSF Env (HIV-1) = HIV-1 JRCSF Env (HIV-1) (UniProt P20871)
[21] = molecular target: HIV-1 93IN905 Env (HIV-1)
[22] = molecular target: HIV-1 MGRM-F1-018 Env (HIV-1)
[23] = molecular target: HIV-1 JRCSF Env on pseudovirus (HIV-1) (UniProt P20871)
[24] = molecular target: HIV-1 MGRM-D-005 Env (HIV-1)
[25] = molecular target: HIV-1 MGRM-AG-002 Env (HIV-1)
[26] = molecular target: HIV-1 98IN022 Env on pseudovirus (HIV-1)
[27] = molecular target: HIV-1 MGRM-F1-016 Env (HIV-1)
[28] = molecular target: HIV-1 TRO.11 (Acute) Env on pseudovirus (HIV-1)
[29] = molecular target: HIV-1 MGRM-G-016 Env (HIV-1)
[30] = molecular target: HIV-1 MGRM-D-016 Env (HIV-1)
[31] = molecular target: HIV-1 MGRM-AG-012 Env (HIV-1)
[32] = molecular target: HIV-1 MGRM-Chronic-B-010 Env on pseudovirus (HIV-1)
[33] = molecular target: HIV-1 MGRM-F1-020 Env (HIV-1)
[34] = molecular target: HIV-1 IAVI-C22 Env (HIV-1)
[35] = molecular target: HIV-1 97ZA012 Env on pseudovirus (HIV-1)

## 1496_C09 (PG9) (TCN-109) (antibody)
[1]
  IC50 (µg/ml), pseudovirus neutralization: 9.31 µg/mL
[2]
  IC50: 5.67 µg/mL
[3]
  IC50: 14.6 µg/mL
[4]
  IC50 (µg/ml), pseudovirus neutralization: 0.07 µg/mL
[5]
  IC50 (µg/ml), pseudovirus neutralization: 0.09 µg/mL
  neutralization IC50: 0.111 µg/mL
  neutralization IC90: 1.99 µg/mL
[6]
  IC50 (pseudovirus neutralization): 0.01 µg/mL
[7]
  IC50 (µg/ml), pseudovirus neutralization: 0.16 µg/mL
[8]
  IC50 (µg/ml), pseudovirus neutralization: 1.51 µg/mL
[9]
  IC50 (µg/ml), pseudovirus neutralization: 0.01 µg/mL
[10]
  IC50 (pseudovirus neutralization): 0.01 µg/mL
[11]
  IC50 (µg/ml), pseudovirus neutralization: 9.71 µg/mL
[12]
  IC50: 0.12 µg/mL
[13]
  IC50 (µg/ml), pseudovirus neutralization: 0.16 µg/mL
[14]
  IC50: 1.07 µg/mL
[15]
  IC50: 0.22 µg/mL
[16]
  IC50 (µg/ml), pseudovirus neutralization: 0.67 µg/mL
[17]
  IC50 (µg/ml), pseudovirus neutralization: 0.01 µg/mL
[18]
  IC50 (µg/ml), pseudovirus neutralization: 0.03 µg/mL
[19]
  IC50: 0.19 µg/mL
[20]
  IC50: 0.1 µg/mL
HIV-1 JRCSF Env (HIV-1)
  neutralization IC50: < 0.0025 µg/mL
  neutralization IC90: < 0.0025 µg/mL
[21]
  neutralization IC90: 1.89 µg/mL
[22]
  IC50 (pseudovirus neutralization): 0.03 µg/mL
[23]
  IC50: 0.003 µg/mL
[24]
  IC50 (µg/ml), pseudovirus neutralization: 0.59 µg/mL
[25]
  IC50 (µg/ml), pseudovirus neutralization: 0.04 µg/mL
[26]
  IC50: 0.006 µg/mL
[27]
  IC50 (pseudovirus neutralization): 0.58 µg/mL
[28]
  IC50: 5.43 µg/mL
[29]
  IC50 (µg/ml), pseudovirus neutralization: 0.4 µg/mL
[30]
  IC50 (µg/ml), pseudovirus neutralization: 0.1 µg/mL
[31]
  IC50 (µg/ml), pseudovirus neutralization: 1.37 µg/mL
[32]
  IC50: 0.004 µg/mL
[33]
  IC50 (pseudovirus neutralization): 4.55 µg/mL
[34]
  neutralization IC50: 24.9 µg/mL
[35]
  IC50: 1.27 µg/mL
